From a protein production outcome set (Wang et al. 2014) come the findings set out here.
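Also: failed if final PepcDB status was selected cloned or expressed and not failed if soluble or beyond.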

The nature of the data set: label from the status in PepcDB records.
With “SDNLSSEEIQQRAHQITDESLESTRRILGLAIESQDAGIKTITMLDEQKEQLNRIEEGLDQINKDMRETEKTLTELNKCCGLCVCPCNRTKNFESGKAYKTTWGDGGENSPCNVVSKQPGPVTNGQLQQPTTGAASGGYIKRITNDAREDEMEENLTQVGSILGNLKDMALNIGNEIDAQNPQIKRITDKADTNRDRIDIANARAKKLIDS”, the protein production entry was “not failed”.

Take “MSQRTSEENRYEQLHRFAAKIHSTMQIDDVLEEIICTLQNVYPAFTYHLLLSHDNHVCGNLPIKTLALDESEGQPAALRAFLTGQVQCEETAAPPRSVLYAPIKGVQAVYGVIQIIAPYAAPFPKREINFISLLAGTAGRALENAKLYEQSRRLEHHHHHH”: the protein production result is “not failed”.

Consider “MPGESNIIEWPASRVRVISGASWSRNGQILSGRCKANNGTWFGITKGGRVAFLVNTSLLLDRVKSYSGSELYPVRFLEGNMSPEQFANEVKVHEKETNERHAYSLVVADMTSSSMVHILKPSDTKSDVVIETVPFGVHTLSSYEGLDSTDSARDLLLRRLFTQMVGNLGNVQQRQMEEIAGRFMYDAQAGRDAVFYHSRDEHPNGKLGTQRFGTTSTTALVVKRTREVMLFEKYMEQNGAWNTNNFAFNIQKQQKLYPNLDKEALKRVGVFALEEVNNHEHDIHPDLMPSFFEDDMLKVKFNEMIARHAKLPPIKNIVEDLMMKSPFFIDSVDGAGKKVRYRTVRTLGMDIKANRPQGRFYERHLNDNGEWVG”, for which the protein production entry is given as “failed”.

Consider “DIAARRHTGVIPTHHQFITNERFGDLLNIDDTAKRKSGSEMRPARAKFDFKAQTLKELPLQKGDIVYIYKQIDQNWYEGEHHGRVGIFPRTYIELLPPAEKAQPKKLTPVQVLEYGEAIAKFNFNGDTQVEMSFRKGERITLLRQVDENWYEGRIPGTSRQGIFPITYVDVIKRPLVKNPVDYMDLPF”, for which the protein production entry is “failed”.

As to “MSSQSIDDKFMSITQMKNLIHYVKKNDALSHLCIYILIITGSRFKPVQHLRYEDLNFKKSCIHLNDTKNKYSKRNVKVRIKDLEYIQSVINKHPINQNGYIFHNFINFISYSAINDVLVRFCLKYKYDKYTLKSLRHTHCSYLLAKGISIQYISKRLGHADIHTTLKIYSHLIKEFEDSENSLIEKNLNDLFSDLEHHHHHH”, the protein production entry is given as “failed”.

As for “MSEMAGDSSTSEDKIHKPNRERNVSGELDVFEATRYFSDFNEPTTIEYSRIQIQKQSIVTENRQKRVHPETEEHLPKPRVVVIKPQKKEMTRGGGKKLTSFLNSLLRSAGLKKKSKSAPEVETPRVERMRRKSCVVTTHAADASPLTNAGAWSLNARRRSFDEKDLKKSDQKLNIRFCESLYSDQRVETKDPNAGDKNDVIGGCESDSSSESDLFELDLFAKSNP”, the protein production result is “failed”.

As for “MTDQAVDTGGSQLPGNEQRPAAAPAPTVSQFLGRTRELKELRADIERAGLDTLSGRKAPRARVLLIAGRPGSGRTALAEELVRQVADRYRDGVLRARLTEPDGTPVPTERTARELLAALEVATPPGAAEDDLTEALREALADRRTLLLLDDVAAAEQVDALLPGTPDCLVVAVSEGPLTGIADVRPCTLGGLDTKSALELLGRLTGAVRITVDPRAAEGLVEECAGQPLALVLAGSWLAARPQAAVADLAKQLRSEGDEGPPTARLFRLAYAGLPATAQRILRLLSLAPAGLVDPHTASALAGCSVSAAHTTLDDFAALGLVRLLESPLPQYEVPGSLLPLLRALAESRERPAELQLARARMLERTVRLLQSCRAITETDSIEAREKLLGMPRTLRFPNPRAAADWLRVRQPALLAAARSAVADGELDTLARRLMSQLVRAMVAHFGTQASAPELYGIHRLVLDVAERRNLPREQAAALLNLADLDTRTGRTTEALARYRAALDAGREANDPYATGRAMESVGGAHQELGDYDRAADWYGRALAQRLARDERVDAARLYGRIATAHTYAGRYGEALRNWRSAVAGHRKNGDVAAQARALSELARVQEYAGRPEESLRTCQEAVEWARRADDVRLQAALQLRLADTLEHLGDPAAAKLHRGAAERMLGEELLESDSGAEQAPNACEIRSASSKD”, the protein production entry is on record as “failed”.

“MTASDDAPISTDRFMFGRAQRWLHWSMALLIFAAIGLGIVAAYYPSGQQPRQGLLELHKSIGFTILALLVVRIVLRLISGEPPYRRPLGHLTEMAARAGHLALYGLMLLMPLSGYLFSGAGGYSLPWFGLFQWPRLVPRDHALSEWGQVLHDRGAWVLGAVLALHLAAVCWHQFVKRDEVLSRMTGRASES”: the protein production result is given as “failed”.

For “MLAERGANITGLDISGPMLQQGREKAQATGVDDRVEFMRGDAARLPFPDDHFDTVFAMRFFHLADTPAAFLAEMRRVSKEQVFFDTFNRFSTRSIYNWALPMGSRLYSRWEIDRLLDGAGLELTDANHDWLLPYGFYRKIPNELAASFRSLDTALGGTPLGEKLASVSYWNTHVLEHHHHHH”, the protein production entry was “failed”.

As to “MAEGGGCRERPDAETQKSELGPLMRTTLQRGAQWYLIDSRWFKQWKKYVGFDSWDMYNVGEHNLFPGPIDNSGLFSDPESQTLKEHLIDELDYVLVPTEAWNKLLNWYGCVEGQQPIVRKVVEHGLFVKHCKVEVYLLELKLCENSDPTNVLSCHFSKADTIATIEKEMRKLFNIPAERETRLWNKYMSNTYEQLSKLDNTVQDAGLYQGQVLVIEPQNEDGTWPRQTLQSKSSTAPSRNFTT”, the protein production entry is “failed”.

Turning to “MAAKTRTFRAAADAWLKAKEEKGLAPSTLNKIRTYLDKDILPALGDKPLDEITRTDCAELQASIEARDAHNVAEKCRTWINQIFGRAIGLGLTENDPGSRLRDIAAQAPKTQLEHHHHHH”, the protein production result is “failed”.

On to “EARGFTAEDFALSHPGGALGRKLLLRVNDIMHTGDEIPHVGLQATLRDALLEITRKNLGMTAICDDDMNIIGIFTDGDLRRVFDTGVDMRDASIADVMTRGGIRIRPGTLAVDALNLMQSRHITCVLVADGDHLLGVVHMHDLLRA”, for which the protein production result is listed as “not failed”.

On to “MRPPLIERYRNLLPVSEKTPVISLLEGSTPLIPLKGPEEARKKGIRLYAKYEGLNPTGSFKDRGMTLAVSKAVEGGAQAVACASTGNTAASAAAYAARAGILAIVVLPAGYVALGKVAQSLVHGARIVQVEGNFDDALRLTQKLTEAFPVALVNSVNPHRLEGQKTLAFEVVDELGDAPHYHALPVGNAGNITAHWMGYKAYHALGKAKRLPRMLGFQAAGAAPLVLGRPVERPETLATAIRIGNPASWQGAVRAKEESGGVIEAVTDEEILFAYRYLAREEGIFCEPASAAAMAGVFKLLREGRLEPESTVVLTLTGHGLKDPATAERVAELPPPVPARLEAVAAAAGLL”, for which the protein production result is on record as “not failed”.

Regarding “MSVPDNVYLIGTMNTADRSLAGLDIALRRRFDFVEMAPRPDKLTGVKVAEIDISAVLETMNRRIEVLLDREHRLGHAYFMSLENSNDLSRLSNIFRQQIIPLLQEYFFEDWQRIAWILNDHRKDERFRFIVPAPYSVDSLFGDTGQVAQDSKAWRMNEEAFHKPQSYLGLEHHHHHH”, the protein production result was “not failed”.

“MVNNDTLSGDVYTASEAKQVQNVSYGTIVNVRPVQIQGGDDSNVIGAIGGAVLGGFLGNTVGGGTGRSLATAAGAVAGGVTGQGVQSAMNKTQGVELEIRKDDGNTIMVVQKQGNTRFSPGQRVVLASNGSQVTVSPRLEHHHHHH”: the protein production entry is “failed”.

As for “MSLAEPRYKADIGGGSLKLPESRIIAGLLLEGVTEDQWRHAIEVENVLQRRSPGTAKRQSSLMRNRLETMGPELWQMVRDGSTQVAIQAVFAAAIKHSTLLGDFLDLVVRDQFRMFRPDLPRKMWDQYLEQCRNRDPLMPVWQDSTANKLADCVYRILVEVGYITDSKTYRLKSVRISGEVMSYLRENNEQYVIRCIQVSIEGHHHHHH”, the protein production entry is reported as “not failed”.

Take “MELPAVGEHVFAVESIEKKRIRKGRVEYLVKWRGWSPKYNTWEPEENILDPRLLIAFQNRERQEQLMGYRKRGPKPKPLVVQVPTFARRSNVLTGLQDSSTDNRAKLDLGAQGKGQGHQYELNSKKHHQYQPHSKERAGKPPPPGKSGKYYYQLNSKKHHPYQPDPKMYDLQYQGGHKEAPSPTCPDLGAKSHPPDKWAQGAGAKGYLGAVKPLAGAAGAPGKGSEKGPPNGMMPAPKEAVTGNGIGGKMKIVKNKNKNGRIVIVMSKYMENGMQAVKIKSGEVAEGEARSPSHKKRAADERHPPADRTFKKAAGAEEKKVEAPPKRREEEVSGVSDPQPQDAGSRKLSPTKEAFGEQPLQLTTKPDLLAWDPARNTHPPSHHPHPHPHHHHHHHHHHHHAVGLNLSHVRKRCLSETHGEREPCKKRLTARSISTPTCLGGSPAAERPADLPPAAALPQPEVILLDSDLDEPIDLRCVKTRSEAGEPPSSLQVKPETPASAAVAVAAAAAPTTTAEKPPAEAQDEPAESLSEFKPFFGNIIITDVTANCLTVTFKEYVTV”: the protein production result was “failed”.
